The record followed here is patent publication US20220033483A1 (GUAGNDONG FEIPENG BIOLOGICAL, published 2022).

To fix the notation:
B1: WT 1-3 (antibody, V domains shown)
VH: QVQLQQSGTELAKPGASVKFSCKASDYTFTTYWMYWIKQRPGQGLEWIGYINPSTGHTEYNQKFKDKATLTADKSSSTAYMQLNSLTSEDSAVYYCARKYFGPFAMDYWGQGTSVTVSS
VL: EIFLTQSPAIMSASPGEKVTMTCSASTSVSYAHWYQQKSGTSPKRWIYDSSKLASGIPVRFSGSGSGTSYSLTISSMEAEDAATYYCQNWSSNPYTFGGGTKLEIKR
B2: Mutation 1-20 (antibody, V domains shown)
VH: QVQLQQSGTELAKPGASVKFSCKASGYTFSTYWMYWIKQRPGQGLEWIGYLNPSSGHTDYNQKFKDKATLTADKSSSTAYMQLNSLTSEDSAVYYCARRYWGPFGMDYWGQGTSVTVSS
VL: EIFLTQSPAIMSASPGEKVTMTCSASSTVSYVHWYQQKSGTSPKRWLYDTSKIASGIPVRFSGSGSGTSYSLTISSMEAEDAATYYCQQWSSQPYTFGGGTKLEIKR
B3: Mutation 1-13 (antibody, V domains shown)
VH: QVQLQQSGTELAKPGASVKFSCKASGYTFSSYWMYWIKQRPGQGLEWIGYLNPSSGHTDYNQRFKDKATLTADKSSSTAYMQLNSLTSEDSAVYYCARRYYGPFGMDYWGQGTSVTVSS
VL: EIFLTQSPAIMSASPGEKVTMTCSASSSVSYVHWYQQKSGTSPKRWIYDTSKIASGIPVRFSGSGSGTSYSLTISSMEAEDAATYYCQQWSTQPYTFGGGTKLEIKR
B4: Mutation 1-15 (antibody, V domains shown)
VH: QVQLQQSGTELAKPGASVKFSCKASGYTFTTYWMYWIKQRPGQGLEWIGYLNPSSGHTDYNQRFKDKATLTADKSSSTAYMQLNSLTSEDSAVYYCARKYFGPFGMDYWGQGTSVTVSS
VL: EIFLTQSPAIMSASPGEKVTMTCSASTSVSYVHWYQQKSGTSPKRWIYDTSKLASGIPVRFSGSGSGTSYSLTISSMEAEDAATYYCQQWSTQPYTFGGGTKLEIKR
notes: CDR-VL3 cell prints 'TQ', read as T/Q
B5: Mutation 1-30 (antibody, V domains shown)
VH: QVQLQQSGTELAKPGASVKFSCKASGYTFTSYWMYWIKQRPGQGLEWIGYLNPSSGHTDYNQRFKDKATLTADKSSSTAYMQLNSLTSEDSAVYYCARRYFGPFGMDYWGQGTSVTVSS
VL: EIFLTQSPAIMSASPGEKVTMTCSASTTVSYVHWYQQKSGTSPKRWLYDTSKLASGIPVRFSGSGSGTSYSLTISSMEAEDAATYYCQQWSSNPYTFGGGTKLEIKR
B6: Mutation 1-31 (antibody, V domains shown)
VH: QVQLQQSGTELAKPGASVKFSCKASGYTFTTYWMYWIKQRPGQGLEWIGYINPSTGHTDYNQKFKDKATLTADKSSSTAYMQLNSLTSEDSAVYYCARRYYGPFGMDYWGQGTSVTVSS
VL: EIFLTQSPAIMSASPGEKVTMTCSASSSVSYVHWYQQKSGTSPKRWIYDTSKLASGIPVRFSGSGSGTSYSLTISSMEAEDAATYYCQQWSSNPYTFGGGTKLEIKR
B7: Mutation 1-21 (antibody, V domains shown)
VH: QVQLQQSGTELAKPGASVKFSCKASGYTFSSYWMYWIKQRPGQGLEWIGYLNPSTGHTDYNQRFKDKATLTADKSSSTAYMQLNSLTSEDSAVYYCARKYFGPFGMDYWGQGTSVTVSS
VL: EIFLTQSPAIMSASPGEKVTMTCSASTSVSYVHWYQQKSGTSPKRWIYDTSKIASGIPVRFSGSGSGTSYSLTISSMEAEDAATYYCQQWSSQPYTFGGGTKLEIKR
B8: Mutation 1-19 (antibody, V domains shown)
VH: QVQLQQSGTELAKPGASVKFSCKASGYTFTSYWMYWIKQRPGQGLEWIGYLNPSTGHTDYNQKFKDKATLTADKSSSTAYMQLNSLTSEDSAVYYCARRYYGPFGMDYWGQGTSVTVSS
VL: EIFLTQSPAIMSASPGEKVTMTCSASSSVSYVHWYQQKSGTSPKRWIYDTSKLASGIPVRFSGSGSGTSYSLTISSMEAEDAATYYCQQWSSQPYTFGGGTKLEIKR
B9: Mutation 1-23 (antibody, V domains shown)
VH: QVQLQQSGTELAKPGASVKFSCKASGYTFTSYWMYWIKQRPGQGLEWIGYINPSTGHTDYNQRFKDKATLTADKSSSTAYMQLNSLTSEDSAVYYCARKYWGPFGMDYWGQGTSVTVSS
VL: EIFLTQSPAIMSASPGEKVTMTCSASSSVSYVHWYQQKSGTSPKRWIYDTSKLASGIPVRFSGSGSGTSYSLTISSMEAEDAATYYCQQWSSNPYTFGGGTKLEIKR
B10: Mutation 1-29 (antibody, V domains shown)
VH: QVQLQQSGTELAKPGASVKFSCKASGYTFSSYWMYWIKQRPGQGLEWIGYINPSSGHTDYNQKFKDKATLTADKSSSTAYMQLNSLTSEDSAVYYCARKYWGPFGMDYWGQGTSVTVSS
VL: EIFLTQSPAIMSASPGEKVTMTCSASSSVSYVHWYQQKSGTSPKRWIYDTSKIASGIPVRFSGSGSGTSYSLTISSMEAEDAATYYCQQWSSNPYTFGGGTKLEIKR
B11: Mutation 1-14 (antibody, V domains shown)
VH: QVQLQQSGTELAKPGASVKFSCKASGYTFTSYWMYWIKQRPGQGLEWIGYLNPSTGHTDYNQKFKDKATLTADKSSSTAYMQLNSLTSEDSAVYYCARRYWGPFGMDYWGQGTSVTVSS
VL: EIFLTQSPAIMSASPGEKVTMTCSASSTVSYVHWYQQKSGTSPKRWLYDTSKLASGIPVRFSGSGSGTSYSLTISSMEAEDAATYYCQQWSTQPYTFGGGTKLEIKR
B12: Mutation 1-27 (antibody, V domains shown)
VH: QVQLQQSGTELAKPGASVKFSCKASGYTFTSYWMYWIKQRPGQGLEWIGYLNPSSGHTDYNQKFKDKATLTADKSSSTAYMQLNSLTSEDSAVYYCARKYFGPFGMDYWGQGTSVTVSS
VL: EIFLTQSPAIMSASPGEKVTMTCSASTSVSYVHWYQQKSGTSPKRWIYDTSKLASGIPVRFSGSGSGTSYSLTISSMEAEDAATYYCQQWSSNPYTFGGGTKLEIKR
B13: Mutation 1-26 (antibody, V domains shown)
VH: QVQLQQSGTELAKPGASVKFSCKASGYTFTTYWMYWIKQRPGQGLEWIGYLNPSTGHTDYNQKFKDKATLTADKSSSTAYMQLNSLTSEDSAVYYCARRYWGPFGMDYWGQGTSVTVSS
VL: EIFLTQSPAIMSASPGEKVTMTCSASSTVSYVHWYQQKSGTSPKRWLYDTSKLASGIPVRFSGSGSGTSYSLTISSMEAEDAATYYCQQWSSNPYTFGGGTKLEIKR
B14: Mutation 1-17 (antibody, V domains shown)
VH: QVQLQQSGTELAKPGASVKFSCKASGYTFSSYWMYWIKQRPGQGLEWIGYINPSTGHTDYNQRFKDKATLTADKSSSTAYMQLNSLTSEDSAVYYCARKYWGPFGMDYWGQGTSVTVSS
VL: EIFLTQSPAIMSASPGEKVTMTCSASSSVSYVHWYQQKSGTSPKRWIYDTSKIASGIPVRFSGSGSGTSYSLTISSMEAEDAATYYCQQWSSQPYTFGGGTKLEIKR
B15: WT 1-5 (antibody, V domains shown)
VH: QVQLQQSGTELAKPGASVKFSCKASDYTFSSYWMYWIKQRPGQGLEWIGYLNPSTGHTEYNQKFKDKATLTADKSSSTAYMQLNSLTSEDSAVYYCARKYWGPFAMDYWGQGTSVTVSS
VL: EIFLTQSPAIMSASPGEKVTMTCSASSSVSYAHWYQQKSGTSPKRWIYDSSKIASGIPVRFSGSGSGTSYSLTISSMEAEDAATYYCQNWSTNPYTFGGGTKLEIKR
B16: WT 1-8 (antibody, V domains shown)
VH: QVQLQQSGTELAKPGASVKFSCKASDYTFSTYWMYWIKQRPGQGLEWIGYINPSTGHTEYNQKFKDKATLTADKSSSTAYMQLNSLTSEDSAVYYCARRYWGPFAMDYWGQGTSVTVSS
VL: EIFLTQSPAIMSASPGEKVTMTCSASTTVSYAHWYQQKSGTSPKRWLYDSSKIASGIPVRFSGSGSGTSYSLTISSMEAEDAATYYCQNWSTQPYTFGGGTKLEIKR
B17: WT 1-6 (antibody, V domains shown)
VH: QVQLQQSGTELAKPGASVKFSCKASDYTFTSYWMYWIKQRPGQGLEWIGYLNPSSGHTEYNQRFKDKATLTADKSSSTAYMQLNSLTSEDSAVYYCARRYFGPFAMDYWGQGTSVTVSS
VL: EIFLTQSPAIMSASPGEKVTMTCSASSTVSYAHWYQQKSGTSPKRWLYDSSKLASGIPVRFSGSGSGTSYSLTISSMEAEDAATYYCQNWSTNPYTFGGGTKLEIKR
B18: WT 1-7 (antibody, V domains shown)
VH: QVQLQQSGTELAKPGASVKFSCKASDYTFTTYWMYWIKQRPGQGLEWIGYLNPSTGHTEYNQKFKDKATLTADKSSSTAYMQLNSLTSEDSAVYYCARRYYGPFAMDYWGQGTSVTVSS
VL: EIFLTQSPAIMSASPGEKVTMTCSASTSVSYAHWYQQKSGTSPKRWIYDSSKLASGIPVRFSGSGSGTSYSLTISSMEAEDAATYYCQNWSTNPYTFGGGTKLEIKR

T1 sequence (P19429 whole entry): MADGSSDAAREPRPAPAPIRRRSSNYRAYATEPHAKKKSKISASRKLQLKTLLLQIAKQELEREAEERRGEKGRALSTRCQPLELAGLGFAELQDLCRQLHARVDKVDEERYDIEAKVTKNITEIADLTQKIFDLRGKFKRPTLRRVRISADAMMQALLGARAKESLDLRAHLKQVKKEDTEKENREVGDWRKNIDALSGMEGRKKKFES

This experiment has as its target T1, cTnI quality control product recombinant protein (human, UniProt P19429 1-210, limits assumed).
T1 construct: the assay paragraphs only say cTnI; also called cardiac troponin I; cTnI antigen
The experiment in a line: AMC biosensor, antibody on sensor. As for the experimental part: Operating process: it is equilibrated in Buffer 1 (PBST) for 60 s, the antibody is immobilized in an antibody solution for 300 s, incubated in Buffer 2 (PBST) for 180 s, bound in antigen solution for 420 s, dissociated in the Buffer 2 for 1200 s, 10 mM of GLY solution with pH 1.69 and Buffer 3 are used for sensor regeneration, and data is output.
One may read the Kd as the concentration at which binding is half-saturated. In general, koff refers to the first-order rate constant of dissociation. For orientation: kon means the rate constant with which the complex forms. Turning to B1, the Kd is 10.8 nM, the koff was found to be 0.000372 s⁻¹ and the kon amounted to 34400 M⁻¹ s⁻¹.

B2: the Kd was 1.38 nM, the koff worked out at 2.3e-05 s⁻¹ and the kon was determined as 16600 M⁻¹ s⁻¹.

With B3, the Kd was found to be 4.42 nM, the koff is 7.82e-05 s⁻¹ and the on-rate constant (kon) is 17700 M⁻¹ s⁻¹.

On to B4, for which the Kd amounted to 1.16 nM, the koff stood at 2.1e-05 s⁻¹ and the kon was 18100 M⁻¹ s⁻¹.

Regarding B5, the Kd was found to be 7.2 nM, the koff was 0.000258 s⁻¹ and the kon was determined as 35800 M⁻¹ s⁻¹.

As for B6, the Kd worked out at 12.7 nM, the koff was 0.000365 s⁻¹ and the kon amounted to 24000 M⁻¹ s⁻¹.

For B7, the Kd amounted to 9.92 nM, the koff came out at 0.000262 s⁻¹ and the kon stood at 26100 M⁻¹ s⁻¹.

In the case of B8, the Kd came to 6.54 nM, the koff came out at 7.12e-05 s⁻¹ and the kon is 10900 M⁻¹ s⁻¹.

For B9, the Kd was determined as 1.76 nM, the koff amounted to 2.04e-05 s⁻¹ and the kon stood at 11600 M⁻¹ s⁻¹.

As to B10, the Kd is 0.96 nM, the koff stood at 1.52e-05 s⁻¹ and the kon came out at 15800 M⁻¹ s⁻¹.

In the case of B11, the Kd was 7.84 nM, the koff is 0.000217 s⁻¹ and the kon is 27700 M⁻¹ s⁻¹.

In the case of B12, the Kd was found to be 9.42 nM, the off-rate constant (koff) was found to be 0.000372 s⁻¹ and the kon came to 39500 M⁻¹ s⁻¹.

On to B13, for which the Kd was determined as 2.08 nM, the koff amounted to 3.31e-05 s⁻¹ and the kon was 15900 M⁻¹ s⁻¹.

Take B14: the Kd stood at 2.98 nM, the koff worked out at 9.97e-05 s⁻¹ and the association rate constant (kon) worked out at 33500 M⁻¹ s⁻¹.

With B15, the Kd was 48.6 nM, the koff worked out at 0.0017 s⁻¹ and the kon amounted to 35000 M⁻¹ s⁻¹.

For the molecule B16, the Kd amounted to 75.1 nM, the koff was found to be 0.00221 s⁻¹ and the kon stood at 29400 M⁻¹ s⁻¹.

Take B17: the equilibrium dissociation constant (Kd) was 51.5 nM, the koff worked out at 0.00131 s⁻¹ and the kon was determined as 25500 M⁻¹ s⁻¹.

Consider B18, for which the Kd worked out at 28.6 nM, the dissociation rate constant (koff) amounted to 0.000795 s⁻¹ and the kon was found to be 27800 M⁻¹ s⁻¹.
